According to patent US20090042782A1, “Diagnostic and therapeutic strategies for conditions associated with the FLJ13639 gene” (priority 2005, published 2009):

B1: P1-TAT: recombinant FLJ13639/P1 protein in frame with HIV TAT protein transduction domain and 6×Histidine tag; amino acid sequence SEQ ID NO:5 (protein)
chain: MRGSHHHHHHGMASMTGGQQMGRDLYDDDDKDRWGSKLGYGRKKRRQRRRGGSTMSGYPYDVPDYAGSMAGTGLESLYRSVVWFAKGLREYTKSGYESACKDFVPHDLEVQIPGRVFLVTGGNSGIGKATALEIAKRGGTVHLVCRDQAPAEDARGEIIRESGNQNIFLHIVDLSDPKQIWKFVENFKQEHKLHVLINNAGCMVNKRELTEDGLEKNFAANTLGVYILTTGLIPVLEKEHDPRVITVSSGGMLVQKLNTNDLQSERTPFDGTMVYAQNKRQQVVLTERWAQGHPAIHFSSMHPGWADTPGVRQAMPGFHARFGDRLRSEAQGADTMLWLALSSAAAAQPSGRFFQDRKPVSTHLPLATASSSPAEEEKLIEILEQLAQTFK

What was measured:
Assay type in all cases: cell-based
HL60 cells = test: JC-1 mitochondrial membrane potential staining, fluorescence microscopy
From the text: FIG. 14A is a graphical representation of green/red fluorescence intensity ratio data measured for treatment of HL60/VDR cells (a vinctrisin resistant cell line) as indicated for the x-axis. * indicates statistical significance.
Disruption of the mitochondrial membrane potential (Δψm) is an early event associated with apoptosis and may be one of several factors responsible for cytochrome c release (17, 18). Using JC-1 mitochondrial potential sensor (Molecular Probes, Inc) staining and fluorescence microscopy, we analyzed the Δψm in VCR (vincristin) treated HL60 cells. In healthy cells, the dye accumulates and aggregates in mitochondria, where it fluoresces bright red. In apoptotic cells, however, it cannot enter mitochondria if the Δψm is altered and fluoresces bright green as a cytoplasmic monomer. Therefore, mitochondria depolarization is indicated by a decrease of the red/green fluorescence intensity ratio.

[1] = test system: HL60/VCR (Vincristin resistant) cells; test: MTT viability assay; details: 48 h
Protocol: Viability assays by conventional MTT assay protocol (Promega) were performed at 48 h after the beginning of the experiment.

CD24 protein expression = CD24 protein expression by immunofluorescence; details: OM9;22 ALL cell line, 48 hours of treatment
From the text: (§1) The same results were obtained using the OVCAR3 ovarian cancer cell line (not shown).

H520 cells = test: Wound healing assay, lung cancer cells; details: treated vs not treated, 5 days
Protocol: FIG. 12A is a photographic representation of a wound healing assay performed on lung cancer cell lines. The H520 cells were treated (or not treated) with the FLJP1-TAT and motility of cells was monitored through a light microscope to analyze closing of the created gap.
(§2) This was performed by growing the cells to confluence and forming a “wound” by scoring the culture with a pipette tip. The cells were then treated with P1-TAT and assessed for their ability to close the gap between the two artificially created cell populations.

MCF7 = test: Wound healing assay, breast cancer cells; details: treated vs not treated
Protocol: FIG. 12B is a wound healing assay as depicted in FIG. 12A performed on breast cancer cells.
as §2

UoCB1 cells = test: Matrigel invasion assay; details: 20 μg of P1-TAT for 48 h, treatment versus no treatment
From the text: To perform the Matrigel invasion assay, cells were deposited on top of a matrigel well and chemoattractant (fetal bovine serum) solutions were positioned below the matrigel matrix. Only cells with an invasive potential will “travel” toward the chemoattractant solutions through the matrigel.

CD24 expression = CD24 expression by RT-PCR in leukemia cell lines incubated with P1-TAT
Protocol: Reverse transcription was done in 20 μl containing a minimum of 1.25 μg of total RNA, 1 μl of 10 mM of deoxynucleotide triphosphate (NEB, Ipswitch, Mass.), 1 μl of 0.5 μg/μl oligo (dT) 18 (IDT, Coralville, Iowa), 1 μl of 40 U/μl ribonuclease inhibitor (Fermentas, Hanover, Md.), 2 μl of 10×reaction buffer (NEB), and 0.25 μl of 200 U/μl MMLV reverse transcriptase (NEB). After incubation with 1 μl of 5U μl RNase H (NEB) for 20 minutes, multiplex PCR reaction was carried out, allowing for simultaneous detection of CD24 and FLJ13639 expression levels. The primers are: CD 24 (resulting in an amplification product of 300 pb) forward: 5′[…]3′ (SEQ ID NO:12), reverse: 5′[…]3′ (SEQ ID NO:13). The primers for FLJ13639 P1 (resulting in an amplification product of 233 pb) are the same as those described in Example 1. The reactions were of an initial denaturation at 95° C. for 10 minutes, followed by 35 cycles: denaturation, 50 seconds at 95° C., annealing 50 seconds at 54° C. and extension 60 seconds at 75° C. Actin amplification was performed as an internal control, according to the following protocol: 15 seconds at 95° C., 30 seconds at 60° C. and 60 seconds at 75° C.
After 48 hours of incubation, cells were harvested, RNA was extracted and cDNA was used for CD24 expression assessment by RT-PCR.
as §1

HeLa cells = test: Lactic acid production in culture medium; details: treated for 3 days vs not treated
Protocol: Mitochondria are well known for their essential role in cell respiration and apoptosis. Cancer cells are known to have altered mitochondrial respiration, where pyruvate is catabolized in the lactic acid fermentation pathway instead of being used in the Krebbs cycle in the mitochondria, which produces energy far more efficiently. […] Culture medium was tested for lactic acid levels.

Molecule | green/red fluorescence ratio (HL60 cells; 0.1 ug of VCR alone) | green/red fluorescence ratio (HL60 cells; 1 ug of VCR alone, p<0.01) | cytotoxicity at 1 µM ([1]; HL60/VCR, Vincristin 1 μM, read-out: reduction of cell viability) [%] | effect on cell viability ([1]; Vincristin 0.1 μM) | CD24 protein expression (CD24 protein expression) | motility / closing of the gap (H520 cells) | motility / closing of the gap (H520 cells; listed as FLJ13639P1-TAT) | motility / closing of the gap (MCF7) | decrease of invasion potential (UoCB1 cells) [fold] | CD24 expression (CD24 expression; OM9:22, ALL-1, K562, 207 cell lines, 20 μg of P1-TAT (data not shown)) | CD24 expression levels (CD24 expression; UoCB1 cell line, increasing amount of P1-TAT, 48 hours, RT-PCR) | CD24 levels, time-course (CD24 expression; UoCB1 cells, 20 μg of P1-TAT, six hours after incubation) | level of lactic acid in culture medium (HeLa cells)
CC[C@]1(O)C[C@H]2CN(CCc3c([nH]c4ccccc34)[C@@](C(=O)OC)(c3cc4c(cc3OC)N(C=O)[C@H]3[C@@](O)(C(=O)OC)[C@H](OC(C)=O)[C@]5(CC)C=CCN6CC[C@]43[C@@H]65)C2)C1 [Vincristin, vincristin] | low green/red fluorescence ratio | significant increase | 90 | almost no effect |  |  |  |  |  |  |  |  | 
B1 |  |  |  |  | down-regulated | significantly reduced the motility | inhibited filling of the gap | significantly reduced the motility | 2.4 | marked CD24 down-regulation | inversely proportional | significantly downregulated | significantly lower level
